Consider 38 molecules from paper PMC314469, “Protein Interaction Networks by Proteome Peptide Scanning” (PLoS Biology, 2004).

The first experiment has as its target T1, amphyphisin SH3 (AMPH_HUMAN), P49418.
T1 chain: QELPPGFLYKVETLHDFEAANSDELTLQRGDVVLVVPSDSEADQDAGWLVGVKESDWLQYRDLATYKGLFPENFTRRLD
Put plainly: SPOT array.
In turn, LAARLRRPSPPEPW [Q9P1Y6 933-946] registered a normalised SPOT signal, Boehringer light units (BLU); mean over the file's lines of this peptide of 77.5.

On to LAYFPPRPPLPPSV [Q96SL1 246-260], for which the normalised SPOT signal, Boehringer light units (BLU); mean over the file's lines of this peptide is 48.7.

Molecule LAHILRRPIIVYGV [Q9UGI0 529-542] gave a normalised SPOT signal, Boehringer light units (BLU); mean over the file's lines of this peptide of 45.6.

Consider AAPLLRRPHGGAGP [O75086 179-192], for which the normalised SPOT signal, Boehringer light units (BLU); mean over the file's lines of this peptide amounted to 25.6.

APANLERPVRYIRK [Q9NYB9 126-139] registered a normalised SPOT signal, Boehringer light units (BLU); mean over the file's lines of this peptide of 3060.

Molecule KVTAPRRPQRYSSG [Q9ULI4 1214-1227] came in with a normalised SPOT signal, Boehringer light units (BLU); mean over the file's lines of this peptide of 16200.

Turning to KTLRLWRPPRYPRK [Q9NPT6 50-63], the normalised SPOT signal, Boehringer light units (BLU); mean over the file's lines of this peptide is 3230.

In turn, LSYSLYRPRKYLYV [Q9Y6D4 264-277] came in with a normalised SPOT signal, Boehringer light units (BLU); mean over the file's lines of this peptide of 137.

The molecule LDASPRRPPGPTTS [Q01970 912-926] had a normalised SPOT signal, Boehringer light units (BLU); mean over the file's lines of this peptide of 210.

LAELPQKPPPGDLP [Q9ULH1 746-760]: the normalised SPOT signal, Boehringer light units (BLU); mean over the file's lines of this peptide came out at 62.4.

With LSQDLIRPIRKTGT [Q9HBF6 199-212], the normalised SPOT signal, Boehringer light units (BLU); mean over the file's lines of this peptide was 1840.

Consider LSNILRRPIIVISD [P21580 199-212], for which the normalised SPOT signal, Boehringer light units (BLU); mean over the file's lines of this peptide amounted to 26.

As for LSKTLRRPRSLLET [Q9C000 828-841], the normalised SPOT signal, Boehringer light units (BLU); mean over the file's lines of this peptide is 32.3.

APEALPRPRREGEL [Q9HA29 107-120] displayed a normalised SPOT signal, Boehringer light units (BLU); mean over the file's lines of this peptide of 708.

As to LSHPLARPRRDAEP [P27539 244-257], the normalised SPOT signal, Boehringer light units (BLU); mean over the file's lines of this peptide came out at 984.

In turn, KVHVPARPYRVLNN [P46013 726-739] showed a normalised SPOT signal, Boehringer light units (BLU); mean over the file's lines of this peptide of 4080.

Molecule LARIPNKPPPEYPG [Q15678 740-754] returned a normalised SPOT signal, Boehringer light units (BLU); mean over the file's lines of this peptide of 30.4.

LANELRRPPLSYHN [P07996 308-321] gave a normalised SPOT signal, Boehringer light units (BLU); mean over the file's lines of this peptide of 34.3.

Take KYSGPYKPPGILKQ [P20933 176-190]: the normalised SPOT signal, Boehringer light units (BLU); mean over the file's lines of this peptide was 39.4.

For the molecule LAEELIRPERNTLV [Q14566 49-62], the normalised SPOT signal, Boehringer light units (BLU); mean over the file's lines of this peptide was found to be 19.4.

As to LDMALRRPPRLRLS [Q8WWL8 44-57], the normalised SPOT signal, Boehringer light units (BLU); mean over the file's lines of this peptide turned out to be 4180.

For the molecule LASTPKRPSTSQTV [P12270 638-651], the normalised SPOT signal, Boehringer light units (BLU); mean over the file's lines of this peptide came out at 32.

The molecule LDGALMRPGRLDRH [Q9UQ90 461-474] returned a normalised SPOT signal, Boehringer light units (BLU); mean over the file's lines of this peptide of 1540.

Regarding LAHVLRRPIVVVAD [Q9NQ53 317-330], the normalised SPOT signal, Boehringer light units (BLU); mean over the file's lines of this peptide stood at 37.4.

As to KTTPLRRPTETNPV [P46100 660-673], the normalised SPOT signal, Boehringer light units (BLU); mean over the file's lines of this peptide was 31.5.

With LSGLIKRPGDLPEV [Q9UFP1 189-202], the normalised SPOT signal, Boehringer light units (BLU); mean over the file's lines of this peptide is 21.9.

In turn, LAEGINRPRKGHDA [O95985 371-384] had a normalised SPOT signal, Boehringer light units (BLU); mean over the file's lines of this peptide of 99.3.

In the case of LAELPGRPPIFWPG [Q9C056 106-120], the normalised SPOT signal, Boehringer light units (BLU); mean over the file's lines of this peptide was 53.5.

LDNALIRPGRFDMQ [Q9Y2Q2 234-247] had a normalised SPOT signal, Boehringer light units (BLU); mean over the file's lines of this peptide of 240.

Take KVFLLRRPPQAPLP [Q9P2E8 92-105]: the normalised SPOT signal, Boehringer light units (BLU); mean over the file's lines of this peptide amounted to 21.

Consider LALFLKRPKRSLFF [P41440 199-212], for which the normalised SPOT signal, Boehringer light units (BLU); mean over the file's lines of this peptide is 2280.

In turn, LAQPLRRPSSVGEL [O43379 748-761] returned a normalised SPOT signal, Boehringer light units (BLU); mean over the file's lines of this peptide of 37.1.

The molecule KTKTLLRPERSRFD [O75705 229-242] had a normalised SPOT signal, Boehringer light units (BLU); mean over the file's lines of this peptide of 239.

As for LAITLRRPGSELEA [Q96KY5 32-45], the normalised SPOT signal, Boehringer light units (BLU); mean over the file's lines of this peptide is 16.

The molecule KYSAPRRPTATGDY [O00501 199-212] displayed a normalised SPOT signal, Boehringer light units (BLU); mean over the file's lines of this peptide of 46.4.

For LASRPTRPPEPRHI [O94836 267-281], the normalised SPOT signal, Boehringer light units (BLU); mean over the file's lines of this peptide amounted to 1090.

In turn, APALPPKPPKPTTV [P27986 303-317] registered a normalised SPOT signal, Boehringer light units (BLU); mean over the file's lines of this peptide of 199.

LATQPKRPMSIPII [P16144 1316-1329]: the normalised SPOT signal, Boehringer light units (BLU); mean over the file's lines of this peptide came out at 23.2.

The next experiment addresses endophilin SH3 (SH3G2_HUMAN), Q99962. Put plainly: SPOT array.
Regarding LAARLRRPSPPEPW [Q9P1Y6 933-946], the normalised SPOT signal, Boehringer light units (BLU); mean over the file's lines of this peptide came to 1180.

As to LAYFPPRPPLPPSV [Q96SL1 246-260], the normalised SPOT signal, Boehringer light units (BLU); mean over the file's lines of this peptide was 2170.

As for LAHILRRPIIVYGV [Q9UGI0 529-542], the normalised SPOT signal, Boehringer light units (BLU); mean over the file's lines of this peptide amounted to 629.

AAPLLRRPHGGAGP [O75086 179-192]: the normalised SPOT signal, Boehringer light units (BLU); mean over the file's lines of this peptide turned out to be 102.

Turning to APANLERPVRYIRK [Q9NYB9 126-139], the normalised SPOT signal, Boehringer light units (BLU); mean over the file's lines of this peptide worked out at 180.

KVTAPRRPQRYSSG [Q9ULI4 1214-1227] came in with a normalised SPOT signal, Boehringer light units (BLU); mean over the file's lines of this peptide of 5620.

In turn, KTLRLWRPPRYPRK [Q9NPT6 50-63] had a normalised SPOT signal, Boehringer light units (BLU); mean over the file's lines of this peptide of 223.

For LSYSLYRPRKYLYV [Q9Y6D4 264-277], the normalised SPOT signal, Boehringer light units (BLU); mean over the file's lines of this peptide was found to be 288.

LDASPRRPPGPTTS [Q01970 912-926] gave a normalised SPOT signal, Boehringer light units (BLU); mean over the file's lines of this peptide of 1090.

Molecule LAELPQKPPPGDLP [Q9ULH1 746-760] yielded a normalised SPOT signal, Boehringer light units (BLU); mean over the file's lines of this peptide of 37.5.

With LSQDLIRPIRKTGT [Q9HBF6 199-212], the normalised SPOT signal, Boehringer light units (BLU); mean over the file's lines of this peptide is 276.

For LSNILRRPIIVISD [P21580 199-212], the normalised SPOT signal, Boehringer light units (BLU); mean over the file's lines of this peptide is 84.4.

LSKTLRRPRSLLET [Q9C000 828-841] yielded a normalised SPOT signal, Boehringer light units (BLU); mean over the file's lines of this peptide of 51.9.

In turn, APEALPRPRREGEL [Q9HA29 107-120] came in with a normalised SPOT signal, Boehringer light units (BLU); mean over the file's lines of this peptide of 318.

As to LSHPLARPRRDAEP [P27539 244-257], the normalised SPOT signal, Boehringer light units (BLU); mean over the file's lines of this peptide stood at 405.

As to KVHVPARPYRVLNN [P46013 726-739], the normalised SPOT signal, Boehringer light units (BLU); mean over the file's lines of this peptide worked out at 1730.

LARIPNKPPPEYPG [Q15678 740-754] registered a normalised SPOT signal, Boehringer light units (BLU); mean over the file's lines of this peptide of 20.4.

LANELRRPPLSYHN [P07996 308-321] registered a normalised SPOT signal, Boehringer light units (BLU); mean over the file's lines of this peptide of 173.

Turning to KYSGPYKPPGILKQ [P20933 176-190], the normalised SPOT signal, Boehringer light units (BLU); mean over the file's lines of this peptide was found to be 47.7.

LAEELIRPERNTLV [Q14566 49-62] yielded a normalised SPOT signal, Boehringer light units (BLU); mean over the file's lines of this peptide of -0.

Consider LDMALRRPPRLRLS [Q8WWL8 44-57], for which the normalised SPOT signal, Boehringer light units (BLU); mean over the file's lines of this peptide stood at 1210.

In turn, LASTPKRPSTSQTV [P12270 638-651] gave a normalised SPOT signal, Boehringer light units (BLU); mean over the file's lines of this peptide of 78.

Molecule LDGALMRPGRLDRH [Q9UQ90 461-474] yielded a normalised SPOT signal, Boehringer light units (BLU); mean over the file's lines of this peptide of 1590.

In turn, LAHVLRRPIVVVAD [Q9NQ53 317-330] gave a normalised SPOT signal, Boehringer light units (BLU); mean over the file's lines of this peptide of 37.7.

Consider KTTPLRRPTETNPV [P46100 660-673], for which the normalised SPOT signal, Boehringer light units (BLU); mean over the file's lines of this peptide was found to be 57.5.

On to LSGLIKRPGDLPEV [Q9UFP1 189-202], for which the normalised SPOT signal, Boehringer light units (BLU); mean over the file's lines of this peptide turned out to be 49.5.

Molecule LAEGINRPRKGHDA [O95985 371-384] registered a normalised SPOT signal, Boehringer light units (BLU); mean over the file's lines of this peptide of 198.

LAELPGRPPIFWPG [Q9C056 106-120] registered a normalised SPOT signal, Boehringer light units (BLU); mean over the file's lines of this peptide of 98.

Consider LDNALIRPGRFDMQ [Q9Y2Q2 234-247], for which the normalised SPOT signal, Boehringer light units (BLU); mean over the file's lines of this peptide is 80.5.

With KVFLLRRPPQAPLP [Q9P2E8 92-105], the normalised SPOT signal, Boehringer light units (BLU); mean over the file's lines of this peptide came to 993.

Turning to LALFLKRPKRSLFF [P41440 199-212], the normalised SPOT signal, Boehringer light units (BLU); mean over the file's lines of this peptide was 838.

In turn, LAQPLRRPSSVGEL [O43379 748-761] displayed a normalised SPOT signal, Boehringer light units (BLU); mean over the file's lines of this peptide of 45.3.

For the molecule KTKTLLRPERSRFD [O75705 229-242], the normalised SPOT signal, Boehringer light units (BLU); mean over the file's lines of this peptide was found to be 80.8.

Regarding LAITLRRPGSELEA [Q96KY5 32-45], the normalised SPOT signal, Boehringer light units (BLU); mean over the file's lines of this peptide was found to be 27.9.

As to KYSAPRRPTATGDY [O00501 199-212], the normalised SPOT signal, Boehringer light units (BLU); mean over the file's lines of this peptide is 36.9.

For the molecule LASRPTRPPEPRHI [O94836 267-281], the normalised SPOT signal, Boehringer light units (BLU); mean over the file's lines of this peptide was determined as 22900.

As for APALPPKPPKPTTV [P27986 303-317], the normalised SPOT signal, Boehringer light units (BLU); mean over the file's lines of this peptide came to 2440.

LATQPKRPMSIPII [P16144 1316-1329] showed a normalised SPOT signal, Boehringer light units (BLU); mean over the file's lines of this peptide of 660.
